Data: article PMC5771497

Tests used:
[1] = biological target: T1, PRC2 5-mer (EZH2-EED-SUZ12-RBBP4-AEBP2) (Homo sapiens, UniProt Q15910-2;O75530;Q15022;Q09028;Q6ZN18 1-751;1-441;1-739;1-425;1-517); test: fluorescence polarization
[2] = biological target: T1, PRC2 5-mer (EZH2-EED-SUZ12-RBBP4-AEBP2); test: competition
[3] = biological target: T1, PRC2 5-mer (EZH2-EED-SUZ12-RBBP4-AEBP2); test: EMSA
[4] = biological target: T1, PRC2 5-mer (EZH2-EED-SUZ12-RBBP4-AEBP2); test: competition; remark: listed apart in the source

B1: (CG)30 dsDNA (dsDNA)
DNA 1: CGCGCGCGCGCGCGCGCGCGCGCGCGCGCGCGCGCGCGCGCGCGCGCGCGCGCGCGCGCG
DNA 2: B1 DNA 1
binding result [1]: binds

GGAAGGAAGGAAGGAAGGAAGGAAGGAAGGAAGGAAGGAA (structured_RNA) [(GGAA)10 RNA]
binding result [2]: binds

B2: (mCpG)24 dsDNA (dsDNA)
DNA 1: CGCGCGCGCGCGCGCGCGCGCGCGCGCGCGCGCGCGCGCGCGCGCGCG
DNA 2: B2 DNA 1
modifications: 5-methyl-C at CpG
Kd [3]: 11.3 ± 6.2 nM

AAAAAAAAAAAAAAAAAAAAAAAAAAAAAAAAAAAAAAAA (ssRNA) [Poly(A)40 RNA]
binding result [4]: no binding
